Marks after values point to notes of the source that are not given here. One block for each compound: values may come before it.
Tests used:
[1] = test system: GL-261 medullary glioma; conditions: vehicle mOS 16 days
Description: Ad-RTS-hIL-12 (Ad) is a recombinant, adenoviral-delivered, gene therapy for expression of interleukin-12 (IL-12) under the control of an orally administered activator ligand, veledimex (V), acting in concert with a ligand-inducible gene switch (also referred to as “RTS®”).

[2] = Veledimex levels in blood and CSF after oral gavage (blood-brain barrier crossing); type: in vivo, C57BL/6 mice; conditions: PO 450 or 1,200 mg/m2/day; normal C57BL/6 and orthotopic GL-261 glioma mice; 24 hours post-veledimex
Description: To generate orthotopic GL-261 glioma mice, a group of C57BL/6 mice received 1×10^5 GL-261 glioma cells via intracranial injection ˜2 mm distal to the intersection of the coronal and sagittal suture. On day 5, the animals were randomly assigned to one of the treatment groups. GL-261, a murine glioma tumor cell line, was purchased from American Type Culture Collection (Manassas, Va.).
Veledimex was administered to normal C57BL/6 mice or orthotopic GL-261 glioma mice via oral gavage (PO) at 450 mg/m2/day or 1,200 mg/m^2/day. Terminal blood and CSF were collected for normal C57BL/6 mice or orthotopic GL-261 glioma mice after 2 days of treatment, and for orthotopic GL-261 glioma mice after 13 days of treatment.

[3] = Phase 1 Main Study: veledimex in plasma and tumor; type: in vivo, human
Description: FIGS. 21A-21D show a series of graphs depicting veledimex, IL-12 and IFN-γ concentrations upon treatment with veledimex. […] Each symbol represents plasma from a single patient. […] Veledimex was administered to each patient approximately 3 hours before the start of the craniotomy. Serum and tumor at the time of resection were then assayed for veledimex levels.
This study is investigating two intratumoral Ad-RTS-hIL-12 doses (2×10^11 vp or 1×10^12 vp) and escalating veledimex doses (10 mg to 40 mg) to determine the safe and tolerable dose based on the safety profiles observed in the presence of variable corticosteroid exposure. Group 1 received one veledimex dose before a standard-of-care resection procedure, Ad was administered by freehand intratumoral injection, then continued with oral V QD for 14 days. Subjects not scheduled for tumor resection (Group 2) received Ad-RTS-hIL-12 (2×10^11 vp or 1×10^12 vp) by stereotactic injection and then continued on oral veledimex for 14 days.

[4] = test system: cytotoxic T cells and Tregs in peripheral blood; experiment: Phase 1 Ad+V with nivolumab in rGBM: peripheral blood flow cytometry; type: in vivo, human; conditions: after nivolumab alone
Description: Methods: An open label, dose escalation Phase 1 study evaluating safety and tolerability of local, inducible IL-12 expression in combination with nivolumab in adult subjects with recurrent glioblastoma (rGBM) was commenced. Ad was administered by intratumoral injection (using a dose of 2×10^11 vp (2e11 vp)) along with daily veledimex (V) (at doses of 10-20 mg) QDx15 PO with nivolumab intravenous infusions (at doses of 1-3 mg/kg) at Day (−)7 (i.e., 7 days prior to administration of Ad+V), at Day 15 (after administration of Ad+V), then Q2W (i.e., once every 2-weeks).

[5] = Phase 1 Ad+V with nivolumab in rGBM: safety (adverse events); type: in vivo, human; conditions: by relatedness
Description: (§1) Ad was administered by intratumoral injection (using a dose of 2×10^11 vp (2e11 vp)) along with daily veledimex (V) (at doses of 10-20 mg) QDx15 PO with nivolumab intravenous infusions (at doses of 1-3 mg/kg) at Day (−)7 (i.e., 7 days prior to administration of Ad+V), at Day 15 (after administration of Ad+V), then Q2W (i.e., once every 2-weeks).

[6] = test system: IL-12; experiment: Phase 1 Ad+V with nivolumab in rGBM: serum IL-12; type: in vivo, human
Description: as §1

[7] = Cohort 1: Ad + V (10 mg) Nivolumab (1 mg/kg) N = 3
[8] = Cohort 2: Ad + V (10 mg) Nivolumab (3 mg/kg) N = 3
[9] = Cohort 3: Ad + V (20 mg) Nivolumab (3 mg/kg) N = 2

Compound: Cn1nnc2c(C(N)=O)ncn2c1=O [temozolomide]
mOS [1]: 25 days

crossing of the blood-brain barrier by orally administered veledimex [2]: crosses the blood-brain barrier
plasma and tumor V peak PK levels versus dose ([3]; V 10-40 mg): dose dependent
Kp ([3]; human, tumor (relative to plasma), oral, Main Study, tumor vs plasma at resection, about 3 hours after V, read-out: V tumor penetration): ~0.4
crossing of the blood-brain-barrier ([3]; rGBM patients): crosses the blood-brain-barrier
Compound: CCC[C@@H](N(NC(=O)c1cccc(OC)c1CC)C(=O)c1cc(C)cc(C)c1)C(C)(C)C [veledimex, (R)—N′-(3,5-dimethylbenzoyl)-N′-(2,2-dimethylhexan-3-yl)-2-ethyl-3-methoxybenzohydrazide]

Compound: Nivolumab: antibody that binds PD-1; heavy and light chains SEQ ID NO: 10 and 11
Tregs (FoxP3) at Day 0 ([4]; baseline 1.5%): 0.8%
peripheral cytotoxic T cells CD3+CD8+ at Day 0 ([4]; median baseline 23%): 26%
Related ≥ Grade 3 AEs: ALT increased [5, 7]: 0
Related ≥ Grade 3 AEs: Brain oedema (cerebral edema) [5, 7]: 1 (33%)
Related ≥ Grade 3 AEs: Lipase increased [5, 7]: 0
Related ≥ Grade 3 AEs: Lymphocyte count Decreased [5, 7]: 0
Related ≥ Grade 3 AEs: ALT increased [5, 8]: 0
Related ≥ Grade 3 AEs: Brain oedema (cerebral edema) [5, 8]: 0
Related ≥ Grade 3 AEs: Lipase increased [5, 8]: 1 (33%)
Related ≥ Grade 3 AEs: Lymphocyte count Decreased ([5]; Cohort 2: Ad + V (10 mg) Nivolumab (3 mg/kg) N = 3, one AE related to both): 1 (33%)*
Related ≥ Grade 3 AEs: ALT increased [5, 9]: 0
Related ≥ Grade 3 AEs: Brain oedema (cerebral edema) [5, 9]: 0
Related ≥ Grade 3 AEs: Lipase increased [5, 9]: 0
Related ≥ Grade 3 AEs: Lymphocyte count Decreased [5, 9]: 0
related SAEs ([5]; Cohorts 1-3): One SAE of brain oedema (cerebral edema) was considered related to nivolumab alone
peripheral IL-12 at Day 0 (median) ([6]; after nivolumab alone (Day -7 dose), median baseline 0.9 pg/ml): 1.0 pg/mL
impact of pre-dosing on cytokine levels prior to Ad+V ([6]; nivolumab Day -7): did not have an impact on cytokine levels
